Literature values as cited in article PMC5340040 (BMC Biochemistry, 2017).

Tested on: actin
Conditions: ref [10]
Source text: Actin is a negatively charged structural protein and the most abundant protein in the eukaryotic cells. Actin, released from dead cells, is also present in the saliva. Actin has important roles in cytoskeleton formation, cell division, motility, adhesion, signaling and more. Actin exists in either monomer globular (G) or polymer filament (F) form, which are interconvertible into each other.

B1: eEF1A: eukaryotic elongation factor 1 alpha (protein, UniProt P02994 2-458, looked up)
Elongation factor 1-alpha: GKEKSHINVVVIGHVDSGKSTTTGHLIYKCGGIDKRTIEKFEKEAAELGKGSFKYAWVLDKLKAERERGITIDIALWKFETPKYQVTVIDAPGHRDFIKNMITGTSQADCAILIIAGGVGEFEAGISKDGQTREHALLAFTLGVRQLIVAVNKMDSVKWDESRFQEIVKETSNFIKKVGYNPKTVPFVPISGWNGDNMIEATTNAPWYKGWEKETKAGVVKGKTLLEAIDAIEQPSRPTDKPLRLPLQDVYKIGGIGTVPVGRVETGVIKPGMVVTFAPAGVTTEVKSVEMHHEQLEQGVPGDNVGFNVKNVSVKEIRRGNVCGDAKNDPPKGCASFNATVIVLNHPGQISAGYSPVLDCHTAHIACRFDELLEKNDRRSGKKLEDHPKFLKSGDAALVKFVPSKPMCVEAFSEYPPLGRFAVRDMRQTVAVGVIKSVDKTEKAAKVTKAAQKAAKK
In the case of B1, the “polymerization and bundling of actin, eEF1A” value is given as “polymerize G-actin to F actin and bundle F-actin into actin bundles”.
